From EP2747783B1

Key:
[1] = molecular target: human c-Met, cell membrane expressed (A549, BxPC-3, myeloma cells) (human) (UniProt P08581); assay: cell-based or functional assay
[2] = molecular target: human c-Met, cell membrane expressed (A549, BxPC-3, myeloma cells) (human) (UniProt P08581); assay: flow cytometry; competition with 1 nM biotinylated hHGF on A549 cells
[3] = molecular target: cynomolgus c-Met expressed on BAF3 cells (cynomolgus monkey); assay: flow cytometry; competition with 0.5 nM biotinylated HGF on BAF3 cells with cynomolgus c-Met
Sequence of cynomolgus c-Met expressed on BAF3 cells (cynomolgus monkey) (A0M8R7 25-1381 S170N/I621T limits assumed, form in doubt): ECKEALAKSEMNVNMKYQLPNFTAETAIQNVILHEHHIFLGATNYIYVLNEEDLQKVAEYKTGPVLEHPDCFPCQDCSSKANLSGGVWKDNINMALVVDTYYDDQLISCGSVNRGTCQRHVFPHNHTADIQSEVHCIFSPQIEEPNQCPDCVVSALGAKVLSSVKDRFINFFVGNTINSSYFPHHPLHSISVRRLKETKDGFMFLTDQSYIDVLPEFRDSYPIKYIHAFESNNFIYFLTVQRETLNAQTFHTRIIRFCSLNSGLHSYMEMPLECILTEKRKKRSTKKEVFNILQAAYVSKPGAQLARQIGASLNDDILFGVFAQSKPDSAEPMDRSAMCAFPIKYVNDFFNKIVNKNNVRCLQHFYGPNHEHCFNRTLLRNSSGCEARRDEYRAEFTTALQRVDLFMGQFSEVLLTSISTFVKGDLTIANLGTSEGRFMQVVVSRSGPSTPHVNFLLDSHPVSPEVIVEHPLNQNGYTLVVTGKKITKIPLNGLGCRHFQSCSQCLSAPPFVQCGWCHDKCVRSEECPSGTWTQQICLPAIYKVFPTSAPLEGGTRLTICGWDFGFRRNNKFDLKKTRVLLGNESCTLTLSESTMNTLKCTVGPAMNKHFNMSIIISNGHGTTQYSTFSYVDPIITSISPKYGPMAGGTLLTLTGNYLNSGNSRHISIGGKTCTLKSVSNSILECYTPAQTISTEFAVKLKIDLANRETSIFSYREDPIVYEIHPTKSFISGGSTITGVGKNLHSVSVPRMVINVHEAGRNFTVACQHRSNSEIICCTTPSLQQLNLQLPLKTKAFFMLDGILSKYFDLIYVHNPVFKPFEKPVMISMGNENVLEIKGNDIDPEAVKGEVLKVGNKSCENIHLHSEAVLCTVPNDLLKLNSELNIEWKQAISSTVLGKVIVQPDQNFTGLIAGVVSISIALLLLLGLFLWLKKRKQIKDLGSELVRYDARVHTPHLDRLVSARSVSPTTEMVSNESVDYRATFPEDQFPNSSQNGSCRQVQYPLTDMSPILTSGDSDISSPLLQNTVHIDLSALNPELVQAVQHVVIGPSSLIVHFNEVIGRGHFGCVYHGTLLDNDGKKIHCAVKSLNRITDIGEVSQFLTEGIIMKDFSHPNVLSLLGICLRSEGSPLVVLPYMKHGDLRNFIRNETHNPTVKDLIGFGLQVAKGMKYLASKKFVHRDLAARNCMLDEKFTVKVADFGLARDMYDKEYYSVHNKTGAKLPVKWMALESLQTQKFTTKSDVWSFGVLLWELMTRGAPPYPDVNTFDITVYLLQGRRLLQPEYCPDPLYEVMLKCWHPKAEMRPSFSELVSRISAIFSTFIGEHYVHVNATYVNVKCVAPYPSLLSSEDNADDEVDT

Sequence of human c-Met, cell membrane expressed (A549, BxPC-3, myeloma cells) (human) (P08581 25-1390 limits assumed, form in doubt): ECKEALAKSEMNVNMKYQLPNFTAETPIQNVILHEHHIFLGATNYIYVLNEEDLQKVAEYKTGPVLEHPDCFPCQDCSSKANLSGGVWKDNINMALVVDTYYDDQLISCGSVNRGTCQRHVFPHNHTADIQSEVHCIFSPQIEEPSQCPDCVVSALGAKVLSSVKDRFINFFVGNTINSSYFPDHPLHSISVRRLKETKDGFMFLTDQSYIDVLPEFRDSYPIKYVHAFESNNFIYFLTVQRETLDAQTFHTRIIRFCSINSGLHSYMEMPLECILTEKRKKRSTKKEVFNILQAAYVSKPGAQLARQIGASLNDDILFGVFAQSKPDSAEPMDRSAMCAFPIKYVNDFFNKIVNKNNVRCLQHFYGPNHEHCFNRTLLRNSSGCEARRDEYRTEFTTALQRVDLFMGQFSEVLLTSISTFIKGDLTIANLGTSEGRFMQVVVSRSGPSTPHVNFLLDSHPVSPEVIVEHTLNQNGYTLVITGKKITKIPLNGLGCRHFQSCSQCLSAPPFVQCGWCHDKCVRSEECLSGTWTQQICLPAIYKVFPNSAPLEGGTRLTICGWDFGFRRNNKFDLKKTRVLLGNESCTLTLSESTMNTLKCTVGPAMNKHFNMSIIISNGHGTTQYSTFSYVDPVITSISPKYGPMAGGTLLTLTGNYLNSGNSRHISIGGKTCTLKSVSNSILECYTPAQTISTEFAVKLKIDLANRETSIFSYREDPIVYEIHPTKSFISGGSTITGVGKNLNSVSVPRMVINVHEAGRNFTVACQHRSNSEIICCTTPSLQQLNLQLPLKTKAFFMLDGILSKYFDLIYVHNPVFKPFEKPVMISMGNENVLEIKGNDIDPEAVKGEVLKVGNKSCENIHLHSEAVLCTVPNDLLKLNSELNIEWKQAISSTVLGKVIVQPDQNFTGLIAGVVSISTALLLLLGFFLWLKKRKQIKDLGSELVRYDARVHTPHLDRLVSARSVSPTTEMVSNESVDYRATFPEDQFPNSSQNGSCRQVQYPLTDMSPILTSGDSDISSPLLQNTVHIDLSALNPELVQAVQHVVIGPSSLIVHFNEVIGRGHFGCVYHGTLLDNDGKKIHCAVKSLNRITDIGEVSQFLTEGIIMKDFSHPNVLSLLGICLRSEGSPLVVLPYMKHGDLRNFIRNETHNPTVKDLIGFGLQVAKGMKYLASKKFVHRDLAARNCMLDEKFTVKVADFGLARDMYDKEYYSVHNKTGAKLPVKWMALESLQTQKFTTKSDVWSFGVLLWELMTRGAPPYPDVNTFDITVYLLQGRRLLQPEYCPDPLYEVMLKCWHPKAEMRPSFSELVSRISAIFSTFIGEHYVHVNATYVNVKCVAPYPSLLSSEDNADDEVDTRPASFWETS

c-Met phosphorylation without HGF (agonistic activity), A549 cells [1] | % inhibition [2] | % inhibition [3] | % inhibition, HGF-dependent A549 cell migration [1] | % inhibition, HGF-dependent c-Met phosphorylation, Experiment 1 [1] | % inhibition, HGF-dependent c-Met phosphorylation, Experiment 2 [1] | % inhibition, HGF-dependent proliferation of BxPC3 cells [1] | IC50, HGF-dependent c-Met phosphorylation, experiment 1 [1] | IC50, HGF-dependent c-Met phosphorylation, experiment 2 [1] | IC50 ratio to 5D5 Fab, HGF-dependent A549 cell migration [1] | IC50 ratio to 5D5 Fab, HGF-dependent c-Met phosphorylation, Experiment 1 [1] | IC50 ratio to 5D5 Fab, HGF-dependent c-Met phosphorylation, Experiment 2 [1] | IC50 ratio to 5D5 Fab, HGF-dependent proliferation of BxPC3 cells [1] | Substance
37 nM | 100% | 100% | – | – | – | – | – | – | – | – | – | – | anti-c-Met antibody 5D5
– | – | – | 112% | 96.4% | 95.9% | 94.8% | 10.4 nM | 9.09 nM | 1 | 1 | 1 | 1 | anti-c-Met antibody fragment 5D5 Fab from mAb
